Test [1] concerns the target T1, FcγRI (human, UniProt P12314 16-288).
T1 construct: also called human FcγRI
Put plainly: BLI (Octet), mAb on HLA-A2 antigen tips, 292 nM FcγRI in solution. (Biolayer interferometry detects binding as a change in optical thickness at a sensor tip.)
Experimental: High Precision Streptavidin 2.0 (SAX2) biosensor tips (Sartorius) were used to determine the kinetics of HLA-A2-specific IgG binding to human FcγRIIIa and FcγRI by biolayer interferometry (BLI) on an Octet (Forte Bio) instrument. Streptavidin (SA) biosensor tips were first loaded with HLA-A2 antigen, followed by HLA-A2 antibody, and finally dipped into FcγR to study the antibody-receptor kinetics. Biosensors were equilibrated with 0.05% Tween-PBS for 60 s, loaded with 0.25 μg/mL biotinylated HLA-A2 antigen (in 0.05% Tween-PBS) until they reached the threshold of 1 nm, and then dipped into 0.05% Tween-PBS to reach baseline for 60 s. […] To improve signal to noise, serum IgG was purified using Melon gel (Thermo) according to the manufacturer's instructions. Polyclonal serum IgG was loaded for 2,400 s. For FcγR dissociation rate (kd) determination, two SAX2 biosensor tips were used, one for the measurement and one as a reference to subtract background signal changes due to dissociation of other components, such as dissociation of HLA-A2-specific IgG from biotinylated HLA. Reference biosensors loaded with IgGs were dipped into buffer (0.05% Tween-PBS) instead of receptors. Finally, the sensors were dipped into 0.05% Tween-PBS for 180 s and 300 s for the dissociation of FcγRIIIa and FcγRI, respectively.

Test [2] has as its target T2, FcγRIIIa V158 (recombinantly expressed, monomeric) (human, UniProt P08637 17-208).
T2 construct: also called biotinylated FcγRIIIa V158 tetramers
The test is described as follows: BLI (Octet), mAb on HLA-A2 antigen tips, monomeric FcγRIIIa V158; dissociation rate printed as 'KD'; the value is the MEAN over afucosylated IgG1 and IgG3.
Text: (§1) Antibody-Receptor dissociation kinetics measurement by Biolayer Interferometry (BLI). […] Streptavidin tips were first coated with biotinylated HLA-A2 antigens. After establishing a signal baseline, the tips were loaded with HLA-A2-specific antibodies, dipped into the buffer for baseline, and then finally dipped into a solution of recombinantly expressed FcγRIIIa V158 monomers. Following receptor association, tips were dipped into a buffer, which allowed receptor dissociation. The dissociation rate of FcγR was defined relatively to a reference tip which was not dipped into the receptor.
(§2) High Precision Streptavidin 2.0 (SAX2) biosensor tips (Sartorius) were used to determine the kinetics of HLA-A2-specific IgG binding to human FcγRIIIa and FcγRI by biolayer interferometry (BLI) on an Octet (Forte Bio) instrument. Streptavidin (SA) biosensor tips were first loaded with HLA-A2 antigen, followed by HLA-A2 antibody, and finally dipped into FcγR to study the antibody-receptor kinetics. Biosensors were equilibrated with 0.05% Tween-PBS for 60 s, loaded with 0.25 μg/mL biotinylated HLA-A2 antigen (in 0.05% Tween-PBS) until they reached the threshold of 1 nm, and then dipped into 0.05% Tween-PBS to reach baseline for 60 s. […]

Test [3] addresses T2, FcγRIIIa V158 (recombinantly expressed, …). Put plainly: BLI (Octet), mAb on HLA-A2 antigen tips, monomeric FcγRIIIa V158; dissociation rate printed as 'KD'; the value is the MEAN over unmodified IgG1 and IgG3.
Text: as §1, §2

Among the data in patent publication US20250172568A1 (TRUSTEES OF DARTMOUTH COLLEGE, published 2025) are binding result and koff values, retold here.

One may read the koff as the rate constant with which the complex falls apart.

T1 sequence (P12314 16-288 limits assumed): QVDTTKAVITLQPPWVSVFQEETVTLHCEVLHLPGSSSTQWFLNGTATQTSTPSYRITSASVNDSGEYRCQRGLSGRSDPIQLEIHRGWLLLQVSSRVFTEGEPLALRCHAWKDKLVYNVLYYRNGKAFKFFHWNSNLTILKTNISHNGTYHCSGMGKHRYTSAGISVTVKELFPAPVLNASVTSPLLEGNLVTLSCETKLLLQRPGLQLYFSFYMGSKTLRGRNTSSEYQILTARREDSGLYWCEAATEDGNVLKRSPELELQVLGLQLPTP
T2 sequence (P08637 17-208 F176V limits assumed): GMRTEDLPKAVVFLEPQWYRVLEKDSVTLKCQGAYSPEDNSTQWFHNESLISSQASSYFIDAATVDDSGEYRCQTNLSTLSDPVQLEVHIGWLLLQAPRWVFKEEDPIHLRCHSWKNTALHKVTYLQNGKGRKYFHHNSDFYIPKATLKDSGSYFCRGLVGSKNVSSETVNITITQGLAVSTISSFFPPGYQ

B1: afucosylated BB7.2 IgG1 (HLA-A2-specific chimeric mAb) (antibody)
heavy: not shown
light: DVLMTQTPLSLPVSLGDQVSISCRSSQSIVHSNGNTYLEWYLQKPGQSPKLLIYKVSNRFSGVPDRFSGSGSGTDFTLKISRVEAEDLGVYYCFQGSHVPRTFGGGTKLEIKRADAAPTVSIFPPSSEQLTSGGASVVCFLNNFYPKDINVKWKIDGSERQNGVLNSWTDQDSKDSTYSMSSTLTLTKDEYERHNSYTCEATHKTSTSPIVKSFNRNEC
notes: also called afucosylated IgG1; afucosylated HLA-A2 mAb
Take B1: in test [1], the binding result is on record as “binds”. Moreover, the koff in test [2] turned out to be 0.021 s⁻¹.

B2: afucosylated BB7.2 IgG3 (HLA-A2-specific chimeric mAb) (antibody)
heavy: QVQLQQSGPELVKPGASVKMSCKASGYTFTSYHIQWVKQRPGQGLEWIGWIYPGDGSTQYNEKFKGKTTLTADKSSSTAYMLLSSLTSEDSAIYFCAREGTYYAMDYWGQGTSVTVSSAKTTPPSVYPLAPGCGDTTGSSVTLGCLVKGYFPESVTVTWNSGSLSSSVHTFPALLQSGLYTMSSSVTVPSSTWPSQTVTCSVAHPASSTTVDKKLELKTPLGDTTHTCPRCPEPKSCDTPPPCPRCPEPKSCDTPPPCPRCPEPKSCDTPPPCPRCPAPELLGGPSVFLFPPKPKDTLMISRTPEVTCVVVDVSHEDPEVQFKWYVDGVEVHNAKTKPREEQYNSTFRVVSVLTVLHQDWLNGKEYKCKVSNKALPAPIEKTISKTKGQPREPQVYTLPPSREEMTKNQVSLTCLVKGFYPSDIAVEWESSGQPENNYNTTPPMLDSDGSFFLYSKLTVDKSRWQQGNIFSCSVMHEALHNRFTQKSLSLSPGK
light: DVLMTQTPLSLPVSLGDQVSISCRSSQSIVHSNGNTYLEWYLQKPGQSPKLLIYKVSNRFSGVPDRFSGSGSGTDFTLKISRVEAEDLGVYYCFQGSHVPRTFGGGTKLEIKRADAAPTVSIFPPSSEQLTSGGASVVCFLNNFYPKDINVKWKIDGSERQNGVLNSWTDQDSKDSTYSMSSTLTLTKDEYERHNSYTCEATHKTSTSPIVKSFNRNEC
notes: also called afucosylated IgG3; afucosylated HLA-A2 mAb
In the case of B2, the binding result in test [1] is listed as “binds”. Moreover, the off-rate (koff) in test [2] came to 0.021 s⁻¹.

B3: BB7.2 IgG1 (HLA-A2-specific chimeric mAb, unmodified / fucosylated) (antibody)
heavy: not shown
light: DVLMTQTPLSLPVSLGDQVSISCRSSQSIVHSNGNTYLEWYLQKPGQSPKLLIYKVSNRFSGVPDRFSGSGSGTDFTLKISRVEAEDLGVYYCFQGSHVPRTFGGGTKLEIKRADAAPTVSIFPPSSEQLTSGGASVVCFLNNFYPKDINVKWKIDGSERQNGVLNSWTDQDSKDSTYSMSSTLTLTKDEYERHNSYTCEATHKTSTSPIVKSFNRNEC
notes: also called HLA-A2 IgG1 mAb; unmodified HLA-A2 mAb
With B3, in test [1], the binding result is reported as “binds”. The koff in test [3] was determined as 0.46 s⁻¹.

B4: BB7.2 IgG3 (HLA-A2-specific chimeric mAb, unmodified / fucosylated) (antibody)
heavy: QVQLQQSGPELVKPGASVKMSCKASGYTFTSYHIQWVKQRPGQGLEWIGWIYPGDGSTQYNEKFKGKTTLTADKSSSTAYMLLSSLTSEDSAIYFCAREGTYYAMDYWGQGTSVTVSSAKTTPPSVYPLAPGCGDTTGSSVTLGCLVKGYFPESVTVTWNSGSLSSSVHTFPALLQSGLYTMSSSVTVPSSTWPSQTVTCSVAHPASSTTVDKKLELKTPLGDTTHTCPRCPEPKSCDTPPPCPRCPEPKSCDTPPPCPRCPEPKSCDTPPPCPRCPAPELLGGPSVFLFPPKPKDTLMISRTPEVTCVVVDVSHEDPEVQFKWYVDGVEVHNAKTKPREEQYNSTFRVVSVLTVLHQDWLNGKEYKCKVSNKALPAPIEKTISKTKGQPREPQVYTLPPSREEMTKNQVSLTCLVKGFYPSDIAVEWESSGQPENNYNTTPPMLDSDGSFFLYSKLTVDKSRWQQGNIFSCSVMHEALHNRFTQKSLSLSPGK
light: DVLMTQTPLSLPVSLGDQVSISCRSSQSIVHSNGNTYLEWYLQKPGQSPKLLIYKVSNRFSGVPDRFSGSGSGTDFTLKISRVEAEDLGVYYCFQGSHVPRTFGGGTKLEIKRADAAPTVSIFPPSSEQLTSGGASVVCFLNNFYPKDINVKWKIDGSERQNGVLNSWTDQDSKDSTYSMSSTLTLTKDEYERHNSYTCEATHKTSTSPIVKSFNRNEC
notes: also called HLA-A2 IgG3 mAb; unmodified HLA-A2 mAb
Take B4: the binding result in test [1] was “binds”. For the same molecule, the koff in test [3] was 0.46 s⁻¹.
